Experimental data reported in US12584139B2, “Nucleic acid construct set, kit, detection method and method for predicting drug effect” (KABUSHIKI KAISHA TOSHIBA, priority 2020, dated 2026).

Tested on: human mammary tumor-derived cell line (MCF-7)
Assay: NanoLuc luminescence assay after transfection of lipid particles encapsulating vectors 1 and vector 2
Type: cell-based
Conditions: for luminescence amount ratio (luminescence intensity with vector 2 alone assumed to be 1): vector 1 (50 ng/well) together with vector 2 (1 ng/well), MCF-7, 48 hours; for NanoLuc luminescence intensity (RLU): vector 1 (50 ng/well) transfected together with vector 2 (1 ng/well), lipid particles, MCF-7, 48 hours after addition
Experimental: A human mammary tumor-derived cell line (MCF-7) was subjected to adhesion culture at 37° C. in a 5% CO2 atmosphere in a culture flask using a medium (MEM, GIBCO) to which 10% fetal bovine serum (FBS) was added. After the culture, the medium was removed, and the cells were washed with PBS, and then the cells were detached by 0.25% trypsin-EDTA treatment. Then, the cells were suspended in a medium to which 10% FBS was added to inactivate trypsin. After recovering the cells by centrifugation, the cells were suspended in a medium to which 10% FBS was added to be 2.0×10^5 cells/mL. To a 96 well culture dish (manufactured by Thermo Fisher Scientific), 200 μL of the cell suspension was added to be 4.0×10^4 cells/well.
Next, the lipid particles encapsulating the three types of vectors 1 prepared in Example 3 were added to the wells to be a DNA concentration of 50 ng/well. At the same time, the lipid particles encapsulating the vector 2 prepared in Example 3 were further added to the wells to be a DNA concentration of 1 ng/well. As a control, a well to which only the vector 2 was added was also provided. Therefore, a sample to which only the vector 2 was added, a sample to which the vector 1-10 and the vector 2 were added, a sample to which the vector 1-20 and the vector 2 were added, and a sample to which the vector 1-30 and the vector 2 were added were obtained. After the addition, the cells were cultured at 37° C. in a 5% CO2 atmosphere.
48 hours after the addition of the lipid particles, the culture plate was taken out of the incubator, and the medium was removed. Then, the cells were washed with PBS, Glo Lysis Buffer (Promega) was added thereto at 100 μL/well, and the resulting mixtures were frozen at −80° C. for 30 minutes. The mixtures were melted at room temperature and then collected in 1.5 ml centrifuge tubes. The cell lysates were centrifuged at 15,000 rpm for 10 minutes to precipitate cell residues, and 25 μL of supernatant was dispensed into a 96 well plate (Black, Nunc). To the dispensed supernatant, 25 μL of a luciferase substrate solution contained in a luciferase assay system (Nano-Glo (registered trademark) Luciferase Assay System, Promega Corporation) was added and mixed. The luminescence amount of the resulting mixture per 1 well per 0.1 seconds was measured by using a luminometer (Mithras LB 940, Berthold).

Molecule	luminescence amount ratio (luminescence intensity with vector 2 alone assumed to be 1)	NanoLuc luminescence intensity (RLU)
vector 1-20: CMV-promoter vector with Cre gene cleaved by ApaI/NheI, 20-base homologous sequences at the cleavage site (from SEQ ID NO: 10) (nucleic acid, misc_feature 1..1138 vector 1-20) DNA: AGTGAACCGTCAGATCCTCGAGATCTGCGATCTAAGTAATGTCCAATTTACTGACCGTACACCAAAATTTGCCTGCATTACCGGTCGATGCAACGAGTGATGAGGTTCGCAAGAACCTGATGGACATGTTCAGGGATCGCCAGGCGTTTTCTGAGCATACCTGGAAAATGCTTCTGTCCGTTTGCCGGTCGTGGGCGGCATGGTGCAAGTTGAATAACCGGAAATGGTTTCCCGCAGAACCTGAAGATGTTCGCGATTATCTTCTATATCTTCAGGCGCGCGGTCTGGCAGTAAAAACTATCCAGCAACATTTGGGCCAGCTAAACATGCTTCATCGTCGGTCCGGGCTGCCACGACCAAGTGACAGCAATGCTGTTTCACTGGTTATGCGGCGGATCCGAAAAGGGCCCGTTAACGCTAGCTTATGCGGCGGATCCGAAAAGAAAACGTTGATGCCGGTGAACGTGCAAAACAGGCTCTAGCGTTCGAACGCACTGATTTCGACCAGGTTCGTTCACTCATGGAAAATAGCGATCGCTGCCAGGATATACGTAATCTGGCATTTCTGGGGATTGCTTATAACACCCTGTTACGTATAGCCGAAATTGCCAGGATCAGGGTTAAAGATATCTCACGTACTGACGGTGGGAGAATGTTAATCCATATTGGCAGAACGAAAACGCTGGTTAGCACCGCAGGTGTAGAGAAGGCACTTAGCCTGGGGGTAACTAAACTGGTCGAGCGATGGATTTCCGTCTCTGGTGTAGCTGATGATCCGAATAACTACCTGTTTTGCCGGGTCAGAAAAAATGGTGTTGCCGCGCCATCTGCCACCAGCCAGCTATCAACTCGCGCCCTGGAAGGGATTTTTGAAGCAACTCATCGATTGATTTACGGCGCTAAGGATGACTCTGGTCAGAGATACCTGGCCTGGTCTGGACACAGTGCCCGTGTCGGAGCCGCGCGAGATATGGCCCGCGCTGGAGTTTCAATACCGGAGATCATGCAAGCTGGTGGCTGGACCAATGTAAATATTGTCATGAACTATATCCGTAACCTGGATAGTGAAACAGGGGCAATGGTGCGCCTGCTGGAAGATGGCGATTAGGGCCGCGACTCTAGAACTAGTGGATCCCCC	0.31	~2.0×10^5 RLU
vector 1-30: CMV-promoter vector with Cre gene cleaved by ApaI/NheI, 30-base homologous sequences at the cleavage site (from SEQ ID NO: 11) (nucleic acid, misc_feature 1..1148 vector 1-30) DNA: AGTGAACCGTCAGATCCTCGAGATCTGCGATCTAAGTAATGTCCAATTTACTGACCGTACACCAAAATTTGCCTGCATTACCGGTCGATGCAACGAGTGATGAGGTTCGCAAGAACCTGATGGACATGTTCAGGGATCGCCAGGCGTTTTCTGAGCATACCTGGAAAATGCTTCTGTCCGTTTGCCGGTCGTGGGCGGCATGGTGCAAGTTGAATAACCGGAAATGGTTTCCCGCAGAACCTGAAGATGTTCGCGATTATCTTCTATATCTTCAGGCGCGCGGTCTGGCAGTAAAAACTATCCAGCAACATTTGGGCCAGCTAAACATGCTTCATCGTCGGTCCGGGCTGCCACGACCAAGTGACAGCAATGCTGTTTCACTGGTTATGCGGCGGATCCGAAAAGAAAACGTTGGGGCCCGTTAACGCTAGCTTATGCGGCGGATCCGAAAAGAAAACGTTGATGCCGGTGAACGTGCAAAACAGGCTCTAGCGTTCGAACGCACTGATTTCGACCAGGTTCGTTCACTCATGGAAAATAGCGATCGCTGCCAGGATATACGTAATCTGGCATTTCTGGGGATTGCTTATAACACCCTGTTACGTATAGCCGAAATTGCCAGGATCAGGGTTAAAGATATCTCACGTACTGACGGTGGGAGAATGTTAATCCATATTGGCAGAACGAAAACGCTGGTTAGCACCGCAGGTGTAGAGAAGGCACTTAGCCTGGGGGTAACTAAACTGGTCGAGCGATGGATTTCCGTCTCTGGTGTAGCTGATGATCCGAATAACTACCTGTTTTGCCGGGTCAGAAAAAATGGTGTTGCCGCGCCATCTGCCACCAGCCAGCTATCAACTCGCGCCCTGGAAGGGATTTTTGAAGCAACTCATCGATTGATTTACGGCGCTAAGGATGACTCTGGTCAGAGATACCTGGCCTGGTCTGGACACAGTGCCCGTGTCGGAGCCGCGCGAGATATGGCCCGCGCTGGAGTTTCAATACCGGAGATCATGCAAGCTGGTGGCTGGACCAATGTAAATATTGTCATGAACTATATCCGTAACCTGGATAGTGAAACAGGGGCAATGGTGCGCCTGCTGGAAGATGGCGATTAGGGCCGCGACTCTAGAACTAGTGGATCCCCC	0.37	~2.4×10^5 RLU
vector 1-10: CMV-promoter vector with Cre gene cleaved by ApaI/NheI, 10-base homologous sequences at the cleavage site (from SEQ ID NO: 9) (nucleic acid, misc_feature 1..1128 vector 1-10) DNA: AGTGAACCGTCAGATCCTCGAGATCTGCGATCTAAGTAATGTCCAATTTACTGACCGTACACCAAAATTTGCCTGCATTACCGGTCGATGCAACGAGTGATGAGGTTCGCAAGAACCTGATGGACATGTTCAGGGATCGCCAGGCGTTTTCTGAGCATACCTGGAAAATGCTTCTGTCCGTTTGCCGGTCGTGGGCGGCATGGTGCAAGTTGAATAACCGGAAATGGTTTCCCGCAGAACCTGAAGATGTTCGCGATTATCTTCTATATCTTCAGGCGCGCGGTCTGGCAGTAAAAACTATCCAGCAACATTTGGGCCAGCTAAACATGCTTCATCGTCGGTCCGGGCTGCCACGACCAAGTGACAGCAATGCTGTTTCACTGGTTATGCGGCGGGGCCCGTTAACGCTAGCTTATGCGGCGGATCCGAAAAGAAAACGTTGATGCCGGTGAACGTGCAAAACAGGCTCTAGCGTTCGAACGCACTGATTTCGACCAGGTTCGTTCACTCATGGAAAATAGCGATCGCTGCCAGGATATACGTAATCTGGCATTTCTGGGGATTGCTTATAACACCCTGTTACGTATAGCCGAAATTGCCAGGATCAGGGTTAAAGATATCTCACGTACTGACGGTGGGAGAATGTTAATCCATATTGGCAGAACGAAAACGCTGGTTAGCACCGCAGGTGTAGAGAAGGCACTTAGCCTGGGGGTAACTAAACTGGTCGAGCGATGGATTTCCGTCTCTGGTGTAGCTGATGATCCGAATAACTACCTGTTTTGCCGGGTCAGAAAAAATGGTGTTGCCGCGCCATCTGCCACCAGCCAGCTATCAACTCGCGCCCTGGAAGGGATTTTTGAAGCAACTCATCGATTGATTTACGGCGCTAAGGATGACTCTGGTCAGAGATACCTGGCCTGGTCTGGACACAGTGCCCGTGTCGGAGCCGCGCGAGATATGGCCCGCGCTGGAGTTTCAATACCGGAGATCATGCAAGCTGGTGGCTGGACCAATGTAAATATTGTCATGAACTATATCCGTAACCTGGATAGTGAAACAGGGGCAATGGTGCGCCTGCTGGAAGATGGCGATTAGGGCCGCGACTCTAGAACTAGTGGATCCCCC	0.45	about 2.9×10^5 RLU
